These results are taken from patent US9144594B2, “Cathepsin L mediated diseases and associated methods and products” (University of Miami, priority 2005, dated 2015).

In one assay the test system is mice. Description: Protein in urine after in vivo gene delivery of dynamin mutants into healthy mice (Bradford). Set-up: species or system mouse.
Assay [1] has as its system LPS induced mouse proteinuria model. Kind of assay: LPS induced mouse proteinuria model, protein in urine (prevention and reversal by dynamin gene delivery). The assay is classed as in vivo. Here is the method:
Next, it was examined whether gene transfer of dynR725A and dynL356Q, G358V was able to protect from LPS induced changes of podocyte FP and thus proteinuria (FIGS. 6A-B); (Table 2B). […] Whereas the application of wildtype dynamin was unable to protect from LPS induced podocyte FP effacement (data not shown) and proteinuria (0.63 mg/ml after 24 hours, p<0.05 and 1.18 mg/ml after 48 hours, p<0.04); table 2B, the co-administration of R725A together with LPS completely abolished the development of proteinuria after 24 hours (0.20 mg/ml). Podocyte FPs remained normal at this timepoint (FIG. 6B). The decline of R725A expression in podocytes was then associated with the development of proteinuria (1.25 mg/ml, 48 h). At this time point, there was noticeable podocyte FP effacement. The application of the cathepsin L resistant dynamin mutant L356Q, G358V together with LPS conferred a partial protection from proteinuria (0.47 mg/ml, P<0.05). This protection was associated with normal appearing podocyte FP (FIG. 6C). Although this protection was not as strong as the one provided by dynR725A, it was prolonged and was still present even after the second dose of LPS ([…], P<0.04). This observation argues that lower expression levels of dynL356Q, G358V are required to protect from LPS induced FP effacement but the presence of dynR725A has the most powerful protection.
Another set of experiments was carried out to study whether dynR725A and dynL356Q, G358V are also useful once there is already established podocyte damage and proteinuria (reversal experiments), (FIGS. 6C, D); (Table 2C). First LPS was injected in mice at 0 and 24 hours and the course of urinary protein loss was documented. On the peak phase of proteinuria at 48 hours after the first LPS injection, either delivery solution (control), dynR725A or dynL356Q, G358V dynamin mutants were transferred and the morphology of podocyte FP was analyzed and the degree of proteinuria was determined 10 hours later when there was strong expression of the transferred gene in podocytes. […] A dramatic reformation of podocyte FPs was also observed (FIG. 6C). The same observation was true for L356Q, G358V (FIG. 6D) which was able to reduce proteinuria from 1.20 mg/ml to 0.71 mg/ml). From the in vitro data it was determined that R725A starts to self assemble into higher order structures in the LPS setting which render dynamin assembly domain protected from cathepsin L cleavage. […] In addition, dominant activating dynR725A proves useful because despite causing podocyte damage in wildtype mice, it can resist cathepsin L cleavage by self assembly in the LPS setting and have strong activity by impairment in its GTP hydrolysis.
If dynamin is a target of CatL, then dynL356Q and dynR725A, which are resistant to CatL cleavage, might protect kidneys from LPS. In control mice, two injections of LPS led to FP effacement (FIG. 21C) and a large increase in proteinuria (FIG. 21E, Con).
Next it was examined whether dynL356Q and dynR725A can reverse already established proteinuria. LPS was injected into mice at 0 and 24 hours. At the peak of proteinuria at 48 hours, mice were injected with dynWT, dynL356Q, or dynR725A, and the degree of proteinuria was analyzed 12 hours post injection. […] The rescue could be achieved with both podocin and CMV-driven protein expression.
All animal studies were approved by the MGH Subcommittee for Research Animal Care. C57BL6 mice were obtained from Jackson Laboratory (Bar Harbor, Me.). CatL−/− mice are in a pure C57BL6 background (Nakagawa et al., Science 280, 450-453 (1998)). LPS induced mouse proteinuria model was utilized as previously described (Reiser et al., J Clin Invest 113, 1390-1397 (2004)). Rat PAN nephrosis model was induced by a single intravenous injection of PAN (180 mg/kg body wt; Sigma-Aldrich, St. Louis, Mo.) (Kim et al., Am J Physiol Renal Physiol 286, F922-935 (2004)). […]

Setting [2] is: Table 2A, gene delivery into mice, t = 0.
Setting [3] is: Table 2A, gene delivery into mice, t = 10 h.
Where [4] appears, read: Table 2A, gene delivery into mice, t = 24 h.
The mark [5] stands for this setting: Table 2B Prevention, 2xLPS, t = 0.
Setting [6] is: Table 2B Prevention, 2xLPS, t = 10 h.
Setting [7] is: Table 2C Reversal, LPS at 0 and 24 h, t = 0.
[8] abbreviates: gene delivery immediately before LPS injection.

B1: dynR725A: dynamin mutant (SEQ ID NO.4) with impaired GTP hydrolysis capacity (protein, listed as Homo sapiens)
chain: MGNRGMEDLIPLVNRLQDAFSAIGQNADLDLPQIAVVGGQSAGKSSVLENFVGRDFLPRGSGIVTRRPLVLQLVNATTEYAEFLHCKGKKFTDFEEVRLEIEAETDRVTGTNKGISPVPINLRVYSPHVLNLTLVDLPGMTKVPVGDQPPDIEFQIRDMLMQFVTKENCLILAVSPANSDLANSDALKVAKEVDPQGQRTIGVITKLDLMDEGTDARDVLENKLLPLRRGYIGVVNRSQKDIDGKKDITAALAAERKFFLSHPSYRHLADRMGTPYLQKVLNQQLTNHIRDTLPGLRNKLQSQLLSIEKEVEEYKNFRPDDPARKTKALLQMVQQFAVDFEKRIEGSGDQIDTYELSGGARINRIFHERFPFELVKMEFDEKELRREISYAIKNIHGIRTGLFTPDMAFETIVKKQVKKIREPCLKCVDMVISELISTVRQCTKKLQQYPRLREEMERIVTTHIREREGRTKEQVMLLIDIELAYMNTNHEDFIGFANAQQRSNQMNKKKTSGNQDEILVIRKGWLTINNIGIMKGGSKEYWFVLTAENLSWYKDDEEKEKKYMLSVDNLKLRDVEKGFMSSKHIFALFNTEQRNVYKDYRQLELACETQEEVDSWKASFLRAGVYPERVGDKEKASETEENGSDSFMHSMDPQLERQVETIRNLVDSYMAIVNKTVRDLMPKTIMHLMINNTKEFIFSELLANLYSCGDQNTLMEESAEQAQRADEMLRMYHALKEALSIIGDINTTTVSTPMPPPVDDSWLQVQSVPAGRRSPTSSPTPQRRAPAVPPARPGSRGPAPGPPPAGSALGGAPPVPSRPGASPDPFGPPPQVPSRPNRAPPGVPSRSGQASPSRPESPRPPFDL
For the molecule B1, the “Protein in the urine” value in the assay on mice (setting [2]) came out at 0.26 ± 0.13 mg/mL; in the assay with mice (setting [3]), 0.58 mg/mL; in the assay on mice (Table 2A, gene delivery into mice, t = 10 h, listed as Dyn R725A), 0.58 ± 0.17 mg/mL; in the assay on mice (setting [4]), 0.20 ± 0.05 mg/mL; in the assay on mice (Table 5 Basic Phenotype, podocin-driven vectors, t = 14 h), 0.88 ± 0.21 mg/mL; in assay [1] (setting [5]) it was 0.17 ± 0.07 mg/mL. Also, the “Protein in the urine” value was 0.23 ± 0.07 mg/mL in assay [1] (setting [6]); 0.20 mg/mL in assay [1] (Table 2B Prevention, 2xLPS, t = 24 h); 1.25 ± 0.26 mg/mL in assay [1] (Table 2B Prevention, 2xLPS, t = 48 h, listed as Dyn R725A); 1.25 mg/mL in assay [1] (Table 2B Prevention, 2xLPS, t = 48 h, listed as R725A); 0.28 ± 0.08 mg/mL in assay [1] (setting [7]); 1.15 mg/mL in assay [1] (Table 2C Reversal, t = 48 h, at gene transfer). For the same molecule, the “Protein in the urine” value in assay [1] (Table 2C Reversal, t = 48 h, at gene transfer, listed as Dyn R725A) came to 1.15 ± 0.15 mg/mL; in assay [1] (Table 2C Reversal, t = 58 h, 10 hours after gene transfer), 0.38 mg/mL; in assay [1] (Table 2C Reversal, t = 58 h, 10 hours after gene transfer, listed as Dyn R725A), 0.38 ± 0.20 mg/mL. Moreover, the “protection from LPS-induced proteinuria, in words” value in assay [1] (setting [8]) is listed as “completely inhibited development of proteinuria after 24 hours”. Also, the “reversal of established proteinuria, in words” value in assay [1] (injected at 48 hours, analyzed 12 hours post injection) is reported as “almost complete reversal of proteinuria”.

B2: dynL356Q, G358V: dynamin mutant (SEQ ID NO.3) not recognized by cathepsin L; ELSGGA mutated to EQSVGA (protein, listed as Homo sapiens)
chain: MGNRGMEDLIPLVNRLQDAFSAIGQNADLDLPQIAVVGGQSAGKSSVLENFVGRDFLPRGSGIVTRRPLVLQLVNATTEYAEFLHCKGKKFTDFEEVRLEIEAETDRVTGTNKGISPVPINLRVYSPHVLNLTLVDLPGMTKVPVGDQPPDIEFQIRDMLMQFVTKENCLILAVSPANSDLANSDALKVAKEVDPQGQRTIGVITKLDLMDEGTDARDVLENKLLPLRRGYIGVVNRSQKDIDGKKDITAALAAERKFFLSHPSYRHLADRMGTPYLQKVLNQQLTNHIRDTLPGLRNKLQSQLLSIEKEVEEYKNFRPDDPARKTKALLQMVQQFAVDFEKRIEGSGDQIDTYEQSVGARINRIFHERFPFELVKMEFDEKELRREISYAIKNIHGIRTGLFTPDMAFETIVKKQVKKIREPCLKCVDMVISELISTVRQCTKKLQQYPRLREEMERIVTTHIREREGRTKEQVMLLIDIELAYMNTNHEDFIGFANAQQRSNQMNKKKTSGNQDEILVIRKGWLTINNIGIMKGGSKEYWFVLTAENLSWYKDDEEKEKKYMLSVDNLKLRDVEKGFMSSKHIFALFNTEQRNVYKDYRQLELACETQEEVDSWKASFLRAGVYPERVGDKEKASETEENGSDSFMHSMDPQLERQVETIRNLVDSYMAIVNKTVRDLMPKTIMHLMINNTKEFIFSELLANLYSCGDQNTLMEESAEQAQRRDEMLRMYHALKEALSIIGDINTTTVSTPMPPPVDDSWLQVQSVPAGRRSPTSSPTPQRRAPAVPPARPGSRGPAPGPPPAGSALGGAPPVPSRPGASPDPFGPPPQVPSRPNRAPPGVPSRSGQASPSRPESPRPPFDL
Regarding B2, the “Protein in the urine” value in the assay with mice (setting [2]) worked out at 0.22 ± 0.06 mg/mL; in the assay on mice (setting [3]) it was 0.33 ± 0.21 mg/mL; in the assay with mice (setting [4]), 0.40 ± 0.15 mg/mL; in assay [1] (setting [5]), 0.21 ± 0.05 mg/mL; in assay [1] (setting [6]) it was 0.26 ± 0.05 mg/mL; in assay [1] (Table 2B Prevention, 2xLPS, t = 24 h, listed as Dyn L356Q, G358V) it was 0.47 ± 0.17 mg/mL. In addition, the “Protein in the urine” value was found to be 0.47 mg/mL in assay [1] (Table 2B Prevention, 2xLPS, t = 24 h, listed as L356Q, G358V); 0.65 ± 0.10 mg/mL in assay [1] (Table 2B Prevention, 2xLPS, t = 48 h); 0.18 ± 0.08 mg/mL in assay [1] (setting [7]); 1.20 ± 0.27 mg/mL in assay [1] (Table 2C Reversal, t = 48 h, at gene transfer, listed as Dyn L356Q, G358V); 1.20 mg/mL in assay [1] (Table 2C Reversal, t = 48 h, at gene transfer, listed as L356Q, G358V); 0.71 ± 0.09 mg/mL in assay [1] (Table 2C Reversal, t = 58 h, 10 hours after gene transfer, listed as Dyn L356Q, G358V). Also, the “Protein in the urine” value in assay [1] (Table 2C Reversal, t = 58 h, 10 hours after gene transfer, listed as L356Q, G358V) came to 0.71 mg/mL. Besides, in the assay with mice (healthy mice), the “proteinuria after gene delivery, in words” value is on record as “did not result in proteinuria”. Further, the reduction of proteinuria in assay [1] (setting [8]) is on record as roughly 50%; in assay [1] (reversal, injected at 48 hours, analyzed 12 hours post injection) it was roughly 50%. Besides, the proteinuria in assay [1] (prevention, after the second dose of LPS) was found to be 0.65 mg/dL.
